Patent US20150191542A1 (INNATE PHARMA S A, published 2015)
Where a chain is given by its changes, count along the chain named. Each block holds one binder with its values, some of them ahead of it.

Key:
[1] = target: T1, MICA*008 expressed on C1R transfectant cells (human, UniProt Q29983 24-297, Glycosylated on cells; the letters do not carry this.); assay: flow cytometry, MFI against antibody concentration on C1R-MICA*08 cells
T1 construct: also called C1R-MICA*008; C1R-MICA*08
T1 chain: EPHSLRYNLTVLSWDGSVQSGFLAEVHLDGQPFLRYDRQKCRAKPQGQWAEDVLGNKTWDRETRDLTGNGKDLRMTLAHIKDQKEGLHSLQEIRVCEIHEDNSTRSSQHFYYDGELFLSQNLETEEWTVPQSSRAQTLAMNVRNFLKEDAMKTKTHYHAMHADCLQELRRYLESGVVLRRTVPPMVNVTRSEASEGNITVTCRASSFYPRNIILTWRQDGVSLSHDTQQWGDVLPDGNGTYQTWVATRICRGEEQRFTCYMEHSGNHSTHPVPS
Description: (§1) The binding of antibodies obtained from the first and second immunization series (including 9C10, 20C6 and 16A8) were tested for binding to MICA-expressing CR1 transfectant cells C1R-MICA*001, C1R-MICA*004, C1R-MICA*007 and C1R-MICA*008 (Pr. A. Steinle, Eberhard-Karls University Tuebingen, Germany) described in Salih et al. (2003) Blood 102(4): […]. Binding was analyzed by flow cytometry.
(§2) Cells were harvested and stained in PBS 1×/BSA 0,2%/EDTA 2 mM buffer during 30 minutes at 4° C. using a dose-range of the anti-MICA mAbs. After two washes in staining buffer, cells were stained for 30 min at 4° C. with goat anti-mouse (H+L)-PE polyclonal antibodies (1/200). After two washes, stainings were acquired on a BD FACS Canto II and analyzed using the FlowJo software.

[2] = target: T2, MICA*001 expressed on transfected cells (human); assay: flow cytometry on C1R-MICA*001 cells, 3-parameter logistic fit
T2 construct: the cells carry the complete allele; also called C1R-MICA*001; C1R-MICA*01
T2 chain: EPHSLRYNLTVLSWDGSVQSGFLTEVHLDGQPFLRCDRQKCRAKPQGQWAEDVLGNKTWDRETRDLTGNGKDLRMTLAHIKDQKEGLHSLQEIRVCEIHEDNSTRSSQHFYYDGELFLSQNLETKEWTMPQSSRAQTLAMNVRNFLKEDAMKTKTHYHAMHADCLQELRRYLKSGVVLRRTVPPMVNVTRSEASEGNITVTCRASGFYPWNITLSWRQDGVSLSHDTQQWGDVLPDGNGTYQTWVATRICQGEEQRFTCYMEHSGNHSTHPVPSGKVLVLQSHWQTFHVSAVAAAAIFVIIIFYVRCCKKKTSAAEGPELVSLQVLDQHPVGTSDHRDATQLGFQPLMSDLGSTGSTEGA
Description: as §1, §2
Antibodies 9C10, 20C6 and 16A8 bound to each of the C1R-MICA*001, C1R-MICA*004, C1R-MICA*007 and C1R-MICA*008 cells (see FIGS. 3A, 3B and 3C for antibodies 9C10, 20C6 and 16A8 respectively). […] EC50 values are shown in Table C in μg/ml (calculated using a 3-parameter logistic fit).

[3] = target: T3, recombinant human MICA extracellular domain recombinant-Fc protein (MICA*019 allele) (human, UniProt Q29983 24-297); assay: SPR Biacore T100, biotinylated antibody captured on CAP chip, MICA*019-Fc injected; bivalent mean KD at pH 7.4; on MICA*019-Fc; bivalent, pH 7.4
T3 construct: Bought from R&D Systems; also called MICA*019-Fc; MICA-Fc; not shown: Fc part of the bought fusion protein (R&D Systems)
T3 chain: T1 chain with G175S
Description: The binding of 9C10, 20C6 and 16A8 to either recombinant human MICA extracellular domain recombinant protein monomers or dimers (MICA*019 allele-Fc protein or MICA*001-His protein) as well as other NKG2D ligands MICB and ULBP1-2 was analyzed by Surface Plasmon Resonance (SPR) using a Biacore T100 apparatus to obtain monovalent and bivalent affinity, respectively. Biotinylated anti-MICA antibodies were injected at a constant rate of 10 μl/min over the Sensor Chip CAP flow-cells comprising Biotin CAPture Reagent. MICA-Fc or MICA-His protein, MICB-Fc, ULBP1-Fc or ULBP2-Fc protein is then injected successively (range of concentrations between 0.01-100 nM), with regeneration between injections, and in increasing order over two flowcells simultaneously. Curves are fitted using Biacore T100 Evaluation software.
Antibody 16A8 bound MICA and MICB but not ULBP1 or ULBP2. Results are shown in FIGS. 1A, 1B, 1C and 1D for MICA, MICB, ULBP1 and ULPB2 respectively.

[4] = target: T4, MICA*004 expressed on C1R transfectant cells (human, UniProt Q29983 24-297, Glycosylated on cells; the letters do not carry this.); assay: flow cytometry, MFI against antibody concentration on C1R-MICA*04 cells
T4 construct: also called C1R-MICA*004; C1R-MICA*04
T4 chain: T1 chain with L122V, G175S, T181R, I213T, R251Q
Description: as §1, §2

[5] = target: T2, MICA*001 expressed on transfected cells; assay: flow cytometry, MFI against antibody concentration on C1R-MICA*01 cells
Description: as §1, §2

EC50 (read off the curve) [1]: ~0.2 µg/mL | EC50 [2]: 3.15 µg/mL | Kd [3]: 0.62 pM | EC50 (read off the curve) [4]: ~0.2 µg/mL
B1: antibody 9C10 (antibody, V domains shown)
VH: QVQLQQPGAELVRPGTSVNLSCKASGYSFTRYWMNWVKQRPGQGLEWIGMIHPSDSETRLNQKFKDKATLTVDKSSSTAYMQLSSPTSEDSAVYYCGYGNFFYVMDYWGQGTSVTVSS
VL: DILLTQSPAILSVSPGERVSFSCRASQSIGTSIHWYQQRTNGSPRLLIKFASESISGIPSRFSGSGSGTDFTLNINSVESEDIADYYCQQSNFWPFTFGSGTKLEVK
modifications: Biotinylated when captured in the SPR assays (9C10-Biot); the sites are not given.
notes: Murine hybridoma antibody of IgG2b isotype as tested; also called 9C10-Biot

EC50 (read off the curve) [5]: ~0.3 µg/mL | EC50 [2]: 1.18 µg/mL
B2: antibody 16A8 (antibody, V domains shown)
VH: EVQLVESGGGLVKPGGSLKLSCAASGFTFSRYAMSWVRQTPEKRLEWVATIFSGGSYTYYPDSVKGRFTISRDNANNTLYLQMSSLKAEDTAMYFCARPNWERTFDYWGQGTTLTVSS
VL: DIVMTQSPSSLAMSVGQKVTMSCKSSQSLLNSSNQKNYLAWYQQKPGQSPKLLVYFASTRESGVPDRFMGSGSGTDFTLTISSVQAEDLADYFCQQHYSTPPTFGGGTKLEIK
notes: Murine hybridoma antibody of IgG2a isotype as tested; also called 16A8-Biot
